The text below walks through data of US20210040206A1 (OSE IMMUNOTHERAPEUTICS, published 2021).

Test [1] has as its target T1, SIRPa V5 (SNP9 + 10 + 11) recombinant protein, extracellular domain fused with mouse Fc from IgG2a (human; mouse, UniProt P78324 31-373).
T1 construct: SNP11 (97 T) is silent; not shown: mouse Fc from IgG2a
Briefly: ELISA on immobilised SIRPa variant-mouse Fc, donkey anti-human IgG peroxidase, TMB 450 nm; given as ED50. As for the experimental part:
(§1) FIG. 4. SIRPa variants binding study using anti-human SIRPa v1 antibody and Kwar antibody by Elisa. Assessment of the binding by ELISA on immobilized SIRPa mutated variants (SIRPa from v1 to v8, see Table 2 in example 1) linked to the mouse Fc domain. Anti-human SIRPa v1 antibody and Kwar antibody (known to bind both SIRPa v1 and SIRPa v2) were compared for their ability to bind the different SIRPa mutated variants.
(§2) Method: The binding activity of the anti-SIRPa antibodies was assessed by ELISA. For the ELISA assay, the in-house anti-human SIRPa v1 antibody and Kwar antibody were tested on 8 different mutated hSIRPa (SIRPA v1 to v8; see table 2). The different variants of mutated hSIRPa (SIRPa v1 to v8) were immobilized on plastic at 0.5 μg/ml in carbonate buffer (pH9.2) and the purified antibody was added to measure binding.
For orientation: An ELISA detects its analyte on a solid surface through an enzyme-linked reagent.

For test [2], the target named is T2, SIRPa V1 recombinant protein (extracellular domain fused with mouse Fc from IgG2a) (human; mouse, UniProt P78324 31-373).
T2 construct: not shown: mouse Fc from IgG2a
The test is described as above. As for the experimental part: as §1, §2

In test [3] the target is T3, SIRPa V7 (SNP14 + ?) recombinant protein, extracellular domain fused with mouse Fc from IgG2a (human; mouse, UniProt P78324 31-373).
T3 construct: not shown: mouse Fc from IgG2a
Described as above. As for the experimental part: as §1, §2

Test [4] has as its target T4, SIRPa V6 (SNP12 + 13) recombinant protein, extracellular domain fused with mouse Fc from IgG2a (human; mouse, UniProt P78324 31-373).
T4 construct: SNP13 is printed as 101 N without a change; not shown: mouse Fc from IgG2a
The description is as above. As for the experimental part:
as §1, §2

The target of test [5] is T5, SIRPa V4 (SNP8) recombinant protein, extracellular domain fused with mouse Fc from IgG2a (human; mouse, UniProt P78324 31-373).
T5 construct: not shown: mouse Fc from IgG2a
The test is described as above. As to the method:
as §1, §2

For test [6], the target named is T6, SIRPa V3 (SNP1 + 2 + 3 + 4 + 5 + 6) recombinant protein, extracellular domain fused with mouse Fc from IgG2a (human; mouse, UniProt P78324 31-373).
T6 construct: SNP3 (51 A) is silent; not shown: mouse Fc from IgG2a
T6 chain: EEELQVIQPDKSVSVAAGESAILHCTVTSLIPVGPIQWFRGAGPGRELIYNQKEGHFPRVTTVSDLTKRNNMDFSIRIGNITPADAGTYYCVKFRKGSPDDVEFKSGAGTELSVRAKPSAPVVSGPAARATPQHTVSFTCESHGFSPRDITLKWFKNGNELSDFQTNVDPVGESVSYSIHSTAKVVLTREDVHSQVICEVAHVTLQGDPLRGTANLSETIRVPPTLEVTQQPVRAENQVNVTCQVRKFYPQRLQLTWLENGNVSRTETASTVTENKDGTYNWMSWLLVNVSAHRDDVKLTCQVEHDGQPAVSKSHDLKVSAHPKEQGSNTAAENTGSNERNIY
The description is as above. As for the experimental part: as §1, §2

For test [7], the target named is T7, human SIRPa v2 expressed by blood monocytes (V2/V2 donors) (human, UniProt P78324 31-504).
T7 construct: also called variant 2; V2 protein
Briefly: FACS competition on human monocytes of V2/V2 donors; blocked ligand: biotinylated CD47Fc, revealed with streptavidin-PE. As for the experimental part:
(§3) METHOD: Human monocytes (purified by elutriation from human PBMC at DTC platform, Nantes, and frozen in DMSO at 10M/ml at −80° C. or liquid nitrogen) were thawed in 40 mL complete RPMI medium. Then immediately centrifuged at 1000 rpm during 10 minCells are resuspended in 10 mL of RPMI medium and counted on Malassez cell. Frozen human monocytes are thawed, diluted samples are added and biotinylated CD47Fc is added afterwards. […] The following protocol was applied: —Put 100,000 human monocytes per well on V-bottom P96 plate; —Centrifuge 1 min at 2500 rpm and empty wells by flicking the plate; —Wash cells 2 times with 200 μL PSE (Centrifuge 1 min at 2500 rpm and empty wells); —Prepare 8 dilutions of the sample beginning with 10 μg/mL (concentrated 2×, final concentration 5 μg/mL) and diluting by steps of 3; —Add 12.5 μL of sample/well on cells and mix; —Incubate 15 min on ice; —Prepare CD47Fc biotinylated solution concentrated 2×, determined in function of paragraph and add 12.5 μL of this solution/well on cells and mix.—Incubate 30 min on ice; —Add 175 μL PSE/w-Centrifuge 1 min at 2500 rpm and empty wells; —Wash cells 2 times with 200 μL PSE (Centrifuge 1 min at 2500 rpm and empty wells). An intermediate concentration is chosen for CD47Fc biotinylated. Here, 5 μg/mL CD47Fc biotinylated are took for the antagonist test. […]

The target of test [8] is T8, human SIRPa v1 expressed by blood monocytes or monocyte-derived cells (V1/V1 donors) (human, UniProt P78324 31-504).
T8 construct: donors were typed on exon 3; also called variant 1
T8 sequence (P78324 31-504 limits assumed): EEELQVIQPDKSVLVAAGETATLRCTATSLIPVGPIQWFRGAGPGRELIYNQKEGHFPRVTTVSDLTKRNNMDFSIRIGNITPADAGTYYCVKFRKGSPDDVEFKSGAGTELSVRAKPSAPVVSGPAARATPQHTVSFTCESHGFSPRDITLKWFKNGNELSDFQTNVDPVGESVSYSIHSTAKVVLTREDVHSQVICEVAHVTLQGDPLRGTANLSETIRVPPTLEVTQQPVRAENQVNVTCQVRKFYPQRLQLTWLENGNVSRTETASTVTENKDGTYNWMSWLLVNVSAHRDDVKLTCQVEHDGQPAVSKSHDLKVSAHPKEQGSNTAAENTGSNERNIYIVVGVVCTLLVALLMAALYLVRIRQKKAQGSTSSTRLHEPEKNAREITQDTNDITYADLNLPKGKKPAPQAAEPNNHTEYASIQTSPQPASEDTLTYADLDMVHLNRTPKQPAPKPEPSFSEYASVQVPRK
Briefly: FACS competition on human monocytes of V1/V1 donors; blocked ligand: biotinylated CD47Fc, revealed with streptavidin-PE. As for the experimental part:
as §3

B1: in-house anti-human SIRPa v1 antibody (antibody, human IgG4, V domains shown)
VH: EVQLVQSGAEVKKPGESLRISCKASGYSFTSYWVHWVRQMPGKGLEWMGNIDPSDSDTHYSPSFQGHVTLSVDKSISTAYLQLSSLKASDTAMYYCVRGGTGTLAYFAYWGQGTLVTVSS
VL: DVVMTQSPLSLPVTLGQPASISCRSSQSLVHSYGNTYLYWFQQRPGQSPRLLIYRVSNRFSGVPDRFSGSGSGTDFTLKISRVEAEDVGVYYCFQGTHVPYTFGGGTKVEIK
notes: also called in-house anti-SIRPa v1 antibody; in-house antibody
Turning to B1, the EC50 (in general, the concentration needed to bring the measured effect to its halfway point) in test [1] was determined as 0.63 ng/mL; in test [2], 0.78 ng/mL; in test [3], 0.54 ng/mL; in test [4] it was 0.72 ng/mL; in test [5], 0.71 ng/mL; in test [6], 0.99 ng/mL. Also, the entries for the “IC50 (read off the curve)” value in test [7] and in test [8] were ~200 ng/mL and ~90 ng/mL, respectively.
